{"source": "patent US20230183364A1", "about": "(ELICERA THERAPEUTICS, published 2023)", "binders": {"B1": {"name": "W-ME107-75 scFv (scFv, V domains shown)", "VH": "EVQLLESGGGLVQPGGSLRLSCAASGFTFYSYGMSWVRQAPGKGLEWVSYISGGGSYTYYADSVKGRFTISRDNSKNTLYLQMNSLRAEDTAVYYCARGSYSHYGAHYLDYWGQGTLVTVSS", "VL": "DIQMTQSPSSLSASVGDRVTITCRASQSISSYLNWYQQKPGKAPKLLIYAASSLQSGVPSRFSGSGSGTDFTLTISSLQPEDFATYYCQQALSSLPTFGQGTKLEIK", "notes": "Human scFv from SciLifeLib phage libraries"}, "B2": {"name": "W-ME107-117 scFv (scFv, V domains shown)", "VH": "EVQLLESGGGLVQPGGSLRLSCAASGFTFSGSYMSWVRQAPGKGLEWVSSIYGSGGYTYYADSVKGRFTISRDNSKNTLYLQMNSLRAEDTAVYYCARYSPFYMDYWGQGTLVTVSS", "VL": "not shown"}, "B3": {"name": "W-ME107-27 scFv (scFv, V domains shown)", "VH": "EVQLLESGGGLVQPGGSLRLSCAASGFTFYGSYMGWVRQAPGKGLEWVSYISGYGGYTYYADSVKGRFTISRDNSKNTLYLQMNSLRAEDTAVYYCARTPYSAYIDYWGQGTLVTVSS", "VL": "not shown", "notes": "as for B1"}, "B4": {"name": "1E10B9 scFv (scFv)", "scFv": "QIQLVQSGPELKKPGETVKIYCKASGYSFRDYSVHWVKQAPGKGLKWMGWINTETGEPTYVDEFKGRFAFFLEASANTVYLQISNLKNEDTATYFCDYRFTYWGQGTLVTVSAGGGGSGGGGSGGGGSEIVMTQTPLILSVTIGQPASISCKSSQSVLYSNGKTYLNWLLQRPGQSPKRLIYLVSKLDSGVPDRFTGSGSGTDFTLKISRVEAEDLGVYYCVQGSHFPYTFGGGTKLEIKAAADYKDHDGDYKDHDIDYKDDDDKAAAHHHHHH", "notes": "also called X-ME107-B9"}, "B5": {"name": "W-ME107-10 scFv (scFv, V domains shown)", "VH": "not shown", "VL": "DIQMTQSPSSLSASVGDRVTITCRASQSISSYLNWYQQKPGKAPKLLIYAASSLQSGVPSRFSGSGSGTDFTLTISSLQPEDFATYYCQQDYYLFTFGQGTKLEIK", "notes": "as for B1"}}, "key": {"[1]": {"target": "T1, Biotinylated human IL13Rα2 (hIL13Rα2-avi) (human, UniProt Q14627 29-331, biotinylated in vivo on the Avi-tag by co-expressed BirA)", "T1 construct": "Produced in Sf9 cells; native signal peptide (aa 1-28) exchanged for the gp67 signal peptide; 42.2 kDa; also called human IL13Rα2-avi; Human ILRα2-avi", "T1 sequence": "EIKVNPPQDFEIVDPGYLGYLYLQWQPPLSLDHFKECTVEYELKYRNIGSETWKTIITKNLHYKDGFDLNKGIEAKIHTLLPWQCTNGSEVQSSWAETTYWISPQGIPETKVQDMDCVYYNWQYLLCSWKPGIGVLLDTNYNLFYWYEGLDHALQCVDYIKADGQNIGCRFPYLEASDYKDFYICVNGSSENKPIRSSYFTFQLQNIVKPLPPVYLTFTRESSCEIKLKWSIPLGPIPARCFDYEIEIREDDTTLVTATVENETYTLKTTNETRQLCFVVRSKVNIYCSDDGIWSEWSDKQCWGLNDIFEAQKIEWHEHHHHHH", "assay": "SPR single cycle kinetics, scFv captured", "source_text": "(§1) An anti-FLAG M2 antibody (Sigma-Aldrich #F1804), functioning as a capture ligand was immobilized onto all four surfaces of a CM5-S amine sensor chip on a BIACORE® T200 instrument (GE Healthcare) according to manufacturer's recommendations."}, "[2]": {"target": "T2, Human IL13Rα2 Fc chimera (hIL13Rα2-Fc, RnD Systems #7147-IR) (human, UniProt Q14627 22-342)", "T2 construct": "Bought; produced in CHO cells; homodimer through Fc fusion; also called hILRα2-Fc; Human ILRα2-Fc; not shown: Fc part (and any linker) of the bought chimera", "T2 sequence": "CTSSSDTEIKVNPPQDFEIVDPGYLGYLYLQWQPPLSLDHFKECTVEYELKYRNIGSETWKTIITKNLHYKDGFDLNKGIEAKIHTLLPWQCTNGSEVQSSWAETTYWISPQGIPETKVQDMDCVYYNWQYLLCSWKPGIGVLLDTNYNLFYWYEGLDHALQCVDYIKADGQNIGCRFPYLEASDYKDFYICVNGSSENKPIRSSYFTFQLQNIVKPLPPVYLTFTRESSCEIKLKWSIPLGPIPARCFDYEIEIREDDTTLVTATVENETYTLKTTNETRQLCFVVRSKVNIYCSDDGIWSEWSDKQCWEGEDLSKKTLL", "assay": "SPR single cycle kinetics, scFv captured", "source_text": "as §1"}, "[3]": {"target": "T3, Mouse IL13Rα2 Fc chimera (mIL13Rα2-Fc, RnD Systems #539-IR) (mouse, UniProt O88786 22-334)", "T3 construct": "range 22-334; Bought; produced in NS0 cells; homodimer through Fc fusion; also called mILRα2-Fc; Mouse ILRα2-Fc; Fc part of the bought chimera not given", "T3 sequence (looked up)": "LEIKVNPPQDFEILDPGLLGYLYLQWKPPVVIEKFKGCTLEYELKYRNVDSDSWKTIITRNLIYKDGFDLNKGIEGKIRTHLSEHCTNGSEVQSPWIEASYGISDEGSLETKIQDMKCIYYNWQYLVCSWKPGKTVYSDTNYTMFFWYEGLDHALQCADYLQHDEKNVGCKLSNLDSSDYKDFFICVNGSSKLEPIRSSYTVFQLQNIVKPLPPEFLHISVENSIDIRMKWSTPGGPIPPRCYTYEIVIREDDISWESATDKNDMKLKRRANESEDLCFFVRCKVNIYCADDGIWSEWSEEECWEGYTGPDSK", "assay": "SPR single cycle kinetics, scFv captured", "source_text": "as §1"}, "streptavidin [4]": {"target": "T4, streptavidin (UniProt P22629 37-163, limits assumed)", "T4 construct": "Negative control antigen; cognate antigen of G-strep-1 scFv; also called negative control protein streptavidin", "T4 sequence (P22629 37-163 limits assumed)": "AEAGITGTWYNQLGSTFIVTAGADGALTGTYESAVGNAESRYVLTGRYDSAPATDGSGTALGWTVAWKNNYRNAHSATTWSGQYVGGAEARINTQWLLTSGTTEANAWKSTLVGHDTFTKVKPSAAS", "assay": "SPR: scFv captured on anti-FLAG M2, streptavidin injected", "experimental": "An anti-FLAG M2 antibody (Sigma-Aldrich #F1804), functioning as a capture ligand, was immobilized onto all four surfaces of a CM5-S amine sensor chip through ECD/NHS chemistry on a BIACORE® T200 instrument (GE Healthcare) according to manufacturer's recommendations.\nThe surfaces were regenerated with 10 mM glycin-HCl pH 2.1. All experiments were performed at 25° C. in HBS supplemented with 0.05% TWEEN 20®, pH 7.5."}, "[5]": {"target": "T5, Human IL13Rα1-Fc (hIL13Rα1-Fc, RnD Systems #146-IR) (human, UniProt P78552 27-342)", "T5 construct": "Bought; Fc part of the bought chimera not given", "T5 sequence (looked up)": "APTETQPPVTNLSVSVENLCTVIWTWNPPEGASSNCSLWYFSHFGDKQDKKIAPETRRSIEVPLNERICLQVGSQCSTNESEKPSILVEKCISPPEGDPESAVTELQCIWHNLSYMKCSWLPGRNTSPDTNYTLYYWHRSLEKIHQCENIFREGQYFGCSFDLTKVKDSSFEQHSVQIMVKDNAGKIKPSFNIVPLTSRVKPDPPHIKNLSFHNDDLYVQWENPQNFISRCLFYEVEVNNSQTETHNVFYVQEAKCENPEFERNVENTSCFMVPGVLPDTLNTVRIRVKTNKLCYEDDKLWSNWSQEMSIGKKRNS", "assay": "ELISA, coated hIL13Ra1-Fc, anti-FLAG-HRP", "experimental": "Coating proteins hIL13Rα2-avi (Example A1), hIL13Rα2-Fc (RnD Systems #7147-IR), mIL13Rα2-Fc (RnD Systems #539-IR) and hIL13Rα1-Fc (RnD Systems #146-IR) were diluted to 1 μg/ml in PBS and directly coated into a 384-well ELISA plate. Two negative control proteins, streptavidin and a non-relevant protein, were also coated. Following incubation of plates with coating-proteins overnight at 4° C., plates were washed twice with MilliQ water and blocked for 2 h in blocking buffer (PBS supplemented with 0.5% BSA+0.05% TWEEN 20®). Triple-FLAG-tagged W-ME107 scFv clones present in bacterial supernatant were diluted 1:10 in blocking buffer and allowed to bind. Detection of binding was enabled through an HRP-conjugated anti-FLAG M2 antibody (Sigma-Aldrich #A8592) followed by incubation with 1-step Ultra TMB ELISA substrate (ThermoFisher Scientific #34029). The colorimetric-signal development was stopped by addition of 1 M sulfuric acid and plates were analyzed at […]."}, "streptavidin [6]": {"target": "T4, streptavidin", "assay": "ELISA on coated streptavidin, scFv in bacterial supernatant, anti-FLAG-HRP", "experimental": "(§2) Human IL13Rα2-avi (see Example A1), and negative control protein streptavidin were coated into a 384-ELISA well plate at 1 μg/ml in PBS at 4° C. overnight.\n(§3) Plates were washed twice with MilliQ water and blocked for 2 h in blocking buffer (phosphate-buffered saline (PBS) supplemented with 0.5% bovine serum albumin (BSA)+0.05% TWEEN 20®). Triple-FLAG-tagged scFv 1E10B9 and mAb47, present in bacterial supernatant, were diluted 1:2, 1:20 and 1:200 in blocking buffer and allowed to bind. An assay control scFv (G-strep-1), specific for streptavidin, was also included. Detection of binding was enabled through an HRP-conjugated anti-FLAG M2 antibody (Sigma-Aldrich #A8592) followed by incubation with 1-step Ultra TMB ELISA substrate (ThermoFisher Scientific #34029). The colorimetric signal development was stopped by adding 1 M sulfuric acid and plates were read at 450 nm. All samples were assayed in duplicates."}, "[7]": {"target": "T1, Biotinylated human IL13Rα2 …", "assay": "ELISA on coated human IL13Ra2, scFv in bacterial supernatant, anti-FLAG-HRP", "experimental": "as §2, §3"}}, "data": [{"binder": "B1", "values": [{"measurement": "Kd", "setting": "[1]", "result": 36, "unit": "nM"}, {"measurement": "koff", "setting": "[1]", "result": 0.0079, "unit": "s⁻¹"}, {"measurement": "kon", "setting": "[1]", "result": 220000, "unit": "M⁻¹ s⁻¹"}, {"measurement": "Kd", "setting": "[2]", "result": 5.4, "unit": "nM"}, {"measurement": "koff", "setting": "[2]", "result": 0.00026, "unit": "s⁻¹"}, {"measurement": "kon", "setting": "[2]", "result": 48000, "unit": "M⁻¹ s⁻¹"}, {"measurement": "Kd", "setting": "[3]", "result": 80, "unit": "nM"}, {"measurement": "koff", "setting": "[3]", "result": 0.0036, "unit": "s⁻¹"}, {"measurement": "kon", "setting": "[3]", "result": 45000, "unit": "M⁻¹ s⁻¹"}, {"measurement": "binding result", "setting": "streptavidin [4]", "result": "no binding (tested: 200 nM)"}, {"measurement": "binding result", "setting": "[5]", "result": "no binding (tested: supernatant diluted 1:10)"}]}, {"binder": "B2", "values": [{"measurement": "Kd", "setting": "[1]", "result": 22, "unit": "nM"}, {"measurement": "koff", "setting": "[1]", "result": 0.0033, "unit": "s⁻¹"}, {"measurement": "kon", "setting": "[1]", "result": 150000, "unit": "M⁻¹ s⁻¹"}, {"measurement": "Kd", "setting": "[2]", "result": 7.8, "unit": "nM"}, {"measurement": "koff", "setting": "[2]", "result": 0.00035, "unit": "s⁻¹"}, {"measurement": "kon", "setting": "[2]", "result": 45000, "unit": "M⁻¹ s⁻¹"}]}, {"binder": "B3", "values": [{"measurement": "Kd", "setting": "[1]", "result": 3.1, "unit": "nM"}, {"measurement": "koff", "setting": "[1]", "result": 0.00022, "unit": "s⁻¹"}, {"measurement": "kon", "setting": "[1]", "result": 69000, "unit": "M⁻¹ s⁻¹"}, {"measurement": "Kd", "setting": "[3]", "result": 2.4, "unit": "nM"}, {"measurement": "koff", "setting": "[3]", "result": 0.00019, "unit": "s⁻¹"}, {"measurement": "kon", "setting": "[3]", "result": 80000, "unit": "M⁻¹ s⁻¹"}, {"measurement": "binding result", "setting": "streptavidin [4]", "result": "no binding (tested: 200 nM)"}, {"measurement": "binding result", "setting": "[5]", "result": "no binding (tested: supernatant diluted 1:10)"}]}, {"binder": "B4", "values": [{"measurement": "binding result", "setting": "streptavidin [6]", "result": "no binding (tested: supernatant diluted 1:2)"}, {"measurement": "binding result", "setting": "[7]", "result": "no binding (tested: supernatant diluted 1:2)"}]}, {"binder": "B5", "values": [{"measurement": "Kd", "setting": "[1]", "result": 3.4, "unit": "nM"}, {"measurement": "koff", "setting": "[1]", "result": 0.00017, "unit": "s⁻¹"}, {"measurement": "kon", "setting": "[1]", "result": 51000, "unit": "M⁻¹ s⁻¹"}, {"measurement": "Kd", "setting": "[3]", "result": 45, "unit": "nM"}, {"measurement": "koff", "setting": "[3]", "result": 0.0018, "unit": "s⁻¹"}, {"measurement": "kon", "setting": "[3]", "result": 40000, "unit": "M⁻¹ s⁻¹"}, {"measurement": "binding result", "setting": "streptavidin [4]", "result": "no binding (tested: 200 nM)"}, {"measurement": "binding result", "setting": "[5]", "result": "no binding (tested: supernatant diluted 1:10)"}]}]}
